# Reference: patent US20090142377A1
# Tests used:
# [1] = target: fdH5-0 (ultrafiltrated dH5-0: flow-through of cdH5-0 through a 1,000 kDa cut-off filter) (influenza A virus H5N1 strain A/Vietnam/1203/04); assay: ELISA, coated H5 form; scaled
# [2] = target: cdH5-0 (supernatant of dH5-0 after 10 minutes centrifugation at 16,000-18,000*g) (influenza A virus H5N1 strain A/Vietnam/1203/04); assay: ELISA, coated H5 form; scaled
# [3] = target: dH5-I (cdH5-0 heat-cycled at pH 7) (influenza A virus H5N1 strain A/Vietnam/1203/04) (UniProt Q8QPL1); assay: ELISA, coated H5 form; scaled
# [4] = target: dH5-III (cdH5-0 incubated about 16 h at 47.5 C) (influenza A virus H5N1 strain A/Vietnam/1203/04) (UniProt Q8QPL1); assay: ELISA, coated H5 form; scaled
# [5] = target: dH5-II (cdH5-0 heat-cycled at pH 2, back to pH 7) (influenza A virus H5N1 strain A/Vietnam/1203/04) (UniProt Q8QPL1); assay: ELISA, coated H5 form; scaled
# [6] = target: non-treated H5 (nH5) of H5N1 strain A/Vietnam/1203/04 (Protein Sciences) (influenza A virus H5N1 strain A/Vietnam/1203/04); assay: ELISA, coated nH5, antibody 1:2000
# [7] = target: dOVA-2: ovalbumin 1 mg/ml in PBS, five heat cycles 30 to 85 C (chicken) (UniProt P01012); assay: ELISA, immobilized OVA form
# [8] = target: cross-beta nOVA: ovalbumin (chicken egg-white albumin) dissolved at 1 mg/ml in PBS (chicken) (UniProt P01012); assay: ELISA, immobilized OVA form
# [9] = target: dOVA-3: ovalbumin 1 mg/ml in PBS, about 16 h at 75 C (chicken) (UniProt P01012); assay: ELISA, immobilized OVA form
# [10] = target: dOVA-1: ovalbumin 5.2 mg/ml in HBS, acidified with HCl, 40 minutes at 37 C, neutralized (chicken) (UniProt P01012); assay: ELISA, immobilized OVA form
# [11] = target: cross-beta nOVA: ovalbumin (chicken egg-white albumin) dissolved at 1 mg/ml in PBS (chicken) (UniProt P01012); assay: ELISA, immobilized OVA; normalized to nOVA
# [12] = target: fdH5-0 (ultrafiltrated dH5-0: flow-through of cdH5-0 through a 1,000 kDa cut-off filter) (influenza A virus H5N1 strain A/Vietnam/1203/04); assay: ELISA, immobilized H5; normalized to cdH5-0
# [13] = target: cdH5-0 (supernatant of dH5-0 after 10 minutes centrifugation at 16,000-18,000*g) (influenza A virus H5N1 strain A/Vietnam/1203/04); assay: ELISA, immobilized H5; normalized to cdH5-0
# [14] = target: dH5-I (cdH5-0 heat-cycled at pH 7) (influenza A virus H5N1 strain A/Vietnam/1203/04) (UniProt Q8QPL1); assay: ELISA, immobilized H5; normalized to cdH5-0
# [15] = target: fdH5-0 (ultrafiltrated dH5-0: flow-through of cdH5-0 through a 1,000 kDa cut-off filter) (influenza A virus H5N1 strain A/Vietnam/1203/04); assay: ELISA, coated H5 form, tPA series with excess e-amino caproic acid
# [16] = target: cdH5-0 (supernatant of dH5-0 after 10 minutes centrifugation at 16,000-18,000*g) (influenza A virus H5N1 strain A/Vietnam/1203/04); assay: as above
relative affinity kD [10],Substance,relative affinity kD [1],relative affinity kD [2],relative affinity kD [3],relative affinity kD [4],relative affinity kD [5],also measured
,"HyTest IgG2a clone 8D2, mouse monoclonal anti-H5 antibody",125 a.u.,100 a.u.,34 a.u.,72 a.u.,36 a.u.,
,"HyTest IgG2a clone 15A6, mouse monoclonal anti-H5 antibody",204 a.u.,100 a.u.,105 a.u.,76 a.u.,31 a.u.,
,"HyTest clone 17C8, mouse monoclonal anti-H5 antibody",128 a.u.,100 a.u.,51 a.u.,68 a.u.,34 a.u.,
,"Rockland anti-H5 A/VN/1203/04 mouse monoclonal antibody, catalogue number 200-301-975",103 a.u.,100 a.u.,47 a.u.,78 a.u.,79 a.u.,ELISA signal [6]: 1.5
,"Rockland anti-H5 A/VN/1203/04 mouse monoclonal antibody, catalogue number 200-301-976",105 a.u.,100 a.u.,0 a.u.,127 a.u.,132 a.u.,
,"Rockland anti-H5 A/VN/1203/04 mouse monoclonal antibody, catalogue number 200-301-977",93 a.u.,100 a.u.,0 a.u.,35 a.u.,0 a.u.,
,"Rockland anti-H5 A/VN/1203/04 mouse monoclonal antibody, catalogue number 200-301-978",107 a.u.,100 a.u.,115 a.u.,112 a.u.,31 a.u.,
,"Rockland anti-H5 A/VN/1203/04 mouse monoclonal antibody, catalogue number 200-301-979",97 a.u.,100 a.u.,125 a.u.,126 a.u.,83 a.u.,
44 a.u.,Sigma C6534 anti-OVA antibody,,,,,,relative affinity kD [7]: 221 a.u.; relative affinity kD [8]: 84.9 a.u.; relative affinity kD [9]: 287 a.u.
,"fourth and fifth finger domain of fibronectin (Fn F4-5), with C-terminal FLAG-tag (from UniProt P02751 183-275)",,,,,,"Normalized affinity, kD (%) [11]: 100%; Normalized affinity, kD (%) [12]: 69%; Normalized affinity, kD (%) [13]: 100%; Normalized affinity, kD (%) [14]: 0%"
20.8 a.u.,"monoclonal anti-OVA IgG (A6075, Sigma) (antibody)",,,,,,
115 a.u.,mouse HYB 099-01 (IgG1) anti-OVA monoclonal antibody,,,,,,relative affinity kD [7]: 129 a.u.; relative affinity kD [8]: 98.5 a.u.; relative affinity kD [9]: 80.9 a.u.
154 a.u.,mouse HYB 099-02 (IgG1) anti-OVA monoclonal antibody,,,,,,relative affinity kD [7]: 118 a.u.; relative affinity kD [8]: 103 a.u.; relative affinity kD [9]: 154 a.u.
127 a.u.,mouse HYB 099-09 (IgG1) anti-OVA monoclonal antibody,,,,,,relative affinity kD [7]: 85.1 a.u.; relative affinity kD [8]: 71.2 a.u.; relative affinity kD [9]: 164 a.u.
,"tissue type plasminogen activator (tPA; Actilyse, Boehringer-Ingelheim) (from UniProt P00750 36-562) (enzyme)",,,,,,Bmax [15]: 0.37; Bmax [16]: 0.36
